± gives the standard deviation of the averaged measurements.

The data set deals with ATP. The experiment in a line: switch fluorescence ratio, 500 uM ATP over buffer (Cy3 cluster intensity, sum of 5 cycles each) (fold (ratio)); higher = stronger signal-on switching upon ATP binding; sequences stand for … in TCGTCGGCAGCGTCAGATGTGTATAAGAGACAGTTTTTTTTTTTTTTTTTTTTTTTTT…TC. As to conditions: aptamer strand: ATP DNA aptamer (quencher-CACCTGGGGGAGTATTGCGGAGGAAGG + anchor), 100 nM annealed; ATP concentration: 500 uM. The procedure, abridged:
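After annealing to 100 nM quencher-labelled ATP aptamer, Cy3-labelled switching-strand clusters on a modified Illumina MiSeq flow-cell were imaged in selection buffer. A second image followed after 15 min with 500 uM ATP at 22 °C, and five such buffer/ATP cycles were done, each separated by NaOH stripping and re-annealing. The fluorescence ratio, averaged per switch-domain sequence, is summed target-cycle over summed buffer-cycle Cy3 intensity per cluster, with clusters outside 100-1000 RFU excluded.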
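Also: ATP exposure 15 min at 22 °C before imaging.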

Consider TTGATCTCTT, for which the switch fluorescence ratio turned out to be 1.01 ± 0.026.

As for TTGATGCGGT, the switch fluorescence ratio stood at 1.04 ± 0.042.

TTGATTAATT: the switch fluorescence ratio turned out to be 0.9925 ± 0.0099.

Turning to TTGATTAGTA, the switch fluorescence ratio is 0.97 ± 0.028.

On to TTGATTCATG, for which the switch fluorescence ratio came to 0.999 ± 0.04.

On to TTGATTGACA, for which the switch fluorescence ratio is 1 ± 0.043.

As to TTGATTGATT, the switch fluorescence ratio worked out at 0.9916 ± 0.0055.

Regarding TTGATTTAAT, the switch fluorescence ratio amounted to 1 ± 0.028.

In the case of TTGATTTCAG, the switch fluorescence ratio was determined as 1.01 ± 0.013.

Regarding TTGCAAATTT, the switch fluorescence ratio worked out at 1.79 ± 1.4.

Consider TTGCAATTCG, for which the switch fluorescence ratio stood at 3.05 ± 2.5.

With TTGCAGATTT, the switch fluorescence ratio was determined as 0.985 ± 0.028.

With TTGCAGTAAT, the switch fluorescence ratio turned out to be 1.87 ± 1.1.

As to TTGCATGGGA, the switch fluorescence ratio turned out to be 0.992 ± 0.018.

On to TTGCCACTGA, for which the switch fluorescence ratio was determined as 1.02 ± 0.013.

Turning to TTGCCATTGG, the switch fluorescence ratio came to 0.9905 ± 0.0062.

Turning to TTGCCGTGTA, the switch fluorescence ratio worked out at 1.02 ± 0.031.

Turning to TTGCCTTTCG, the switch fluorescence ratio was determined as 0.97 ± 0.041.

On to TTGCGCCGC, for which the switch fluorescence ratio came out at 1.138 ± 0.0037.

In the case of TTGCGCGCTA, the switch fluorescence ratio came to 0.98 ± 0.054.

For the sequence TTGCGCTATT, the switch fluorescence ratio stood at 1.07 ± 0.018.

In the case of TTGCGGGGTT, the switch fluorescence ratio is 1.14 ± 0.15.

In the case of TTGCGGTATG, the switch fluorescence ratio stood at 0.986 ± 0.022.

As for TTGCGTGGTG, the switch fluorescence ratio was 0.959 ± 0.077.

Consider TTGCGTTTGA, for which the switch fluorescence ratio came to 1.008 ± 0.005.

TTGCGTTTTG: the switch fluorescence ratio was determined as 0.991 ± 0.057.

Regarding TTGCTAAAGC, the switch fluorescence ratio was 1.038 ± 0.0054.

As to TTGCTACTGT, the switch fluorescence ratio is 0.983 ± 0.018.

TTGCTCCTGT: the switch fluorescence ratio amounted to 0.9965 ± 0.0019.

TTGCTCTGGG: the switch fluorescence ratio is 0.974 ± 0.019.

Regarding TTGCTCTGTT, the switch fluorescence ratio stood at 0.988 ± 0.023.

TTGCTGGAAT: the switch fluorescence ratio turned out to be 1.06 ± 0.095.

For TTGCTGTTTG, the switch fluorescence ratio is 1 ± 0.034.

With TTGCTTAAAA, the switch fluorescence ratio came out at 0.9852 ± 0.0095.

As for TTGCTTACAT, the switch fluorescence ratio came to 1.02 ± 0.021.

TTGCTTCCGT: the switch fluorescence ratio was determined as 1.1 ± 0.084.

In the case of TTGCTTTGGG, the switch fluorescence ratio is 1.01 ± 0.018.

Regarding TTGCTTTGTT, the switch fluorescence ratio came out at 1.0015 ± 0.001.

As to TTGGAAAAT, the switch fluorescence ratio turned out to be 0.967 ± 0.013.

Consider TTGGAAGGAC, for which the switch fluorescence ratio amounted to 1.03 ± 0.013.

Consider TTGGAAGGGA, for which the switch fluorescence ratio was determined as 1 ± 0.015.

TTGGAATAGA: the switch fluorescence ratio stood at 0.999 ± 0.05.

TTGGAATGTT: the switch fluorescence ratio stood at 0.952 ± 0.043.

Consider TTGGAATTTA, for which the switch fluorescence ratio amounted to 1 ± 0.016.

For the sequence TTGGACATGC, the switch fluorescence ratio was 1.06 ± 0.14.

As to TTGGAGACGG, the switch fluorescence ratio worked out at 1.023 ± 0.0012.

On to TTGGAGAGAA, for which the switch fluorescence ratio came out at 0.974 ± 0.022.

Regarding TTGGAGGGAG, the switch fluorescence ratio amounted to 0.999 ± 0.043.

Take TTGGAGGGGG: the switch fluorescence ratio was found to be 1.01 ± 0.039.

In the case of TTGGAGGGTG, the switch fluorescence ratio was 1.005 ± 0.01.

With TTGGAGGTTA, the switch fluorescence ratio was 0.973 ± 0.017.

Take TTGGAGTGTT: the switch fluorescence ratio worked out at 0.999 ± 0.026.

For TTGGAGTTTT, the switch fluorescence ratio was 1.01 ± 0.038.

For TTGGATGAAA, the switch fluorescence ratio is 1.03 ± 0.076.

TTGGATGGAA: the switch fluorescence ratio was 0.984 ± 0.023.

Consider TTGGATGTAC, for which the switch fluorescence ratio came to 1.14 ± 0.15.

For the sequence TTGGATGTTG, the switch fluorescence ratio turned out to be 1.01 ± 0.034.

Turning to TTGGATTTAG, the switch fluorescence ratio was found to be 0.998 ± 0.0044.

In the case of TTGGATTTTC, the switch fluorescence ratio stood at 1.04 ± 0.032.

Take TTGGCACAGT: the switch fluorescence ratio amounted to 1.008 ± 0.0048.

For TTGGCAGGCC, the switch fluorescence ratio stood at 1.017 ± 0.0074.

Take TTGGCGGGGA: the switch fluorescence ratio was 0.987 ± 0.054.

As for TTGGCGGGTT, the switch fluorescence ratio came to 1.008 ± 0.0062.

In the case of TTGGCTACAA, the switch fluorescence ratio came out at 0.985 ± 0.037.

As to TTGGCTGTGC, the switch fluorescence ratio amounted to 1.02 ± 0.019.

On to TTGGCTTCAT, for which the switch fluorescence ratio amounted to 0.968 ± 0.016.

(Values after the supplement of paper PMC10126150.)
